In patent US20060100146A1, “AWAT-related methods and articles” (priority 2004, published 2006):
Several values for one entry are separate records, joined by “and”; a condition that tells them apart may be missing. Equal entries are not always repeated.

Tests used:
[1] = test system: wax ester formation from cetyl alcohol and oleoyl-CoA; assay: In vitro AWAT (acyl-CoA wax alcohol acyltransferase) assay in yeast microsomes; format: biochemical, human
Description: (§1) A dilute inoculation of each strain into 500 mL of SC-His+2% galactose+1% raffinose was grown overnight at 30° C. into log phase. Cells were washed and lysed, and microsomes were prepared from a 100,000 g spin, as previously described (39). Protein concentrations were determined (40) and diacylglycerol esterification assays were performed as described previously (17,19,41). In brief, microsomes (100 μg) were preincubated for 5 min at 37° in 100 mM TRIS, pH 7.5 containing 0.25 M sucrose, 1 mM EDTA, 10 mM MgCl2, 20 μM fatty acid free BSA, 160 μM dioleoylglycerol (in 5 μl acetone, final volume 200 μl). The reaction was initiated by the addition of [^14C]oleoyl-CoA (10-20,000 dpm/nmol, 40 μM) and stopped after 10 min by the addition of 4 ml of chloroform:methanol (2:1 v/v). Carrier TAG (10 μg) and internal standard ([^3H]triolein, 30,000 dpm) were added followed by 0.8 ml water to separate phases. The lower chloroform layer containing the lipids was removed, evaporated to dryness, resuspended in 50 μl chloroform and individual lipid classes separated on Varian chromatography paper using a hexane:diethyl ether:acetic acid (170:30:1 v/v) mobile phase. The spot corresponding to TG was cut out and counted.
Acyl-CoA wax alcohol acyltransferase (AWAT) assays were performed as above with the following exceptions: 200 μM cetyl alcohol (unlabeled or [^14C]-labeled 10,000 dpm/nmol) was substituted for DAG, oleoyloleate was used as carrier, and reactions were incubated for 20 min in a final volume of 250 μl. After separation by TLC, the spot corresponding to wax ester was cut out and counted. For alcohol and acyl-CoA substrate specificity studies, microsomal preparations from DGA2 (20 μg) and hDC4 (10 μg) were used. Kill reactions and vector controls were included for all experiments. The various wax alcohols and acyl-Co A's were substituted for cetyl alcohol or oleoyl Co A at the concentrations specified above. Activity is presented as pmol/min/mg protein.
(§2) Microsomes from TG-null yeast strains transformed with human DGAT2, DGA2, hDC3, or hDC4 were incubated in the presence of dioleoylglycerol or cetyl alcohol and [^14C]oleoyl-CoA and assayed for esterification as described in Experimental Procedures. Data are expressed as pmol of neutral lipid (TAG or Wax ester) formed per min/mg protein as a mean±Std. dev. DGAT activities are from 3 replicate experiments and AWAT activities are from a representative experiment performed in triplicate. Background levels to the assay from strains transformed with vector control have been subtracted.

[2] = test system: TAG formation from dioleoylglycerol and [14C]oleoyl-CoA; assay: In vitro DGAT (diacylglycerol esterification) assay in yeast microsomes; format: biochemical; details: microsomes from TG-null yeast expressing the human enzyme; dioleoylglycerol + [14C]oleoyl-CoA; TAG formed; vector control subtracted; mean +/- Std. dev., 3 replicate experiments
Description: as §1, §2

B1: hDC4: acyl-CoA wax alcohol acyltransferase 2, synonym human DGAT candidate gene 4; human enzyme expressed in yeast microsomes (protein, UniProt Q6E213 1-333, looked up)
Acyl-CoA wax alcohol …: MLLPSKKDLKTALDVFAVFQWSFSALLITTTVIAVNLYLVVFTPYWPVTVLILTWLAFDWKTPQRGGRRFTCVRHWRLWKHYSDYFPLKLLKTHDICPSRNYILVCHPHGLFAHGWFGHFATEASGFSKIFPGITPYILTLGAFFWMPFLREYVMSTGACSVSRSSIDFLLTHKGTGNMVIVVIGGLAECRYSLPGSSTLVLKNRSGFVRMALQHGVPLIPAYAFGETDLYDQHIFTPGGFVNRFQKWFQSMVHIYPCAFYGRGFTKNSWGLLPYSRPVTTIVGEPLPMPKIENPSQEIVAKYHTLYIDALRKLFDQHKTKFGISETQELEII
modifications: yeast microsomes
notes: acyl-CoA wax alcohol acyltransferase 2, synonym human DGAT candidate gene 4; human enzyme expressed in yeast microsomes
- AWAT Activity ([1]; [14C]cetyl alcohol rather than radiolabeled oleoyl CoA as monitor of ester formation): 1232 pmol/min/mg
- AWAT Activity ([1]; microsomes from TG-null yeast expressing the human enzyme, cetyl alcohol + [14C]oleoyl-CoA, wax ester formed, vector control subtracted, mean +/- Std. dev., triplicate): 1066 pmol/min/mg protein and 1066 +/− 18.6 pmol/min/mg protein
- DGAT Activity [2]: 11.4 +/− 3.4 pmol/min/mg protein
